{
  "source": "patent US10100120B2",
  "about": "“Antibody which specifically binds to human CRTH2” (KYOWA HAKKO KIRIN CO., LTD, priority 2015, dated 2018)",
  "key": {"[1]": {"system": "human eosinophils", "experiment": "Eosinophil depletion (cytotoxic) activity in human peripheral blood cells, flow cytometry", "format": "cell-based", "settings": "37° C., 20 hours", "description": "(§1) Human peripheral blood collected by adding a heparin sodium injection liquid was centrifuged at 4° C. and 1500 rpm for 30 minutes, and the plasma was recovered.\n(§2) After the plasma was recovered, PBS (NACALAI TESQUE, Inc.) was added to the pellet containing the red blood up to the original volume of blood and the pellet was suspended. Next, to 1 mL of the suspension, 10 mL of hemolyzing solution [solution obtained by diluting 10×RBC Lysis buffer (eBioscience) 10 times with sterile water] was added to be mixed by inversion. The resultant was allowed to stand at room temperature for 10 minutes and centrifuged at room temperature and 1500 rpm for 5 minutes and washed twice with PBS after the supernatant was removed therefrom.\n(§3) Thereafter, the cell pellet was suspended with the recovered plasma and the cells were seeded in a 48-well plate at 300 μL/well, each of chLym2, humanized Lym2 antibodies LV0HV0, LV0HV1, and LV0HV2a, or an isotype control antibody [IgG1 antibody prepared according to the method described in Example 5 using a vector encoding an anti-2,4-dinitrophenol (DNP) IgG1 antibody described in Clin Cancer Res 2005, 11(8), 3126 to 3135 (hereinafter, referred to as anti-DNP IgG1 antibody)] were added at each final concentrations of 1000, 100, 33, 11, 3.7, 1.2, 0.4, and 0.01 ng/mL to cause a reaction in a 5% CO2 incubator at 37° C. for 20 hours.\n(§4) After the reaction, the cell fluid in each well was recovered, 10 mL of SM was added thereto, 200 μL per sample of CountBright Absolute Counting Beads, for flow cytometry (Molecular Probes) was added as control beads, and the fluid was centrifuged at 4° C. and 2000 rpm for 10 minutes, and then the supernatant was removed. The resultant was washed twice with SM, 10000 μg/mL of IgG from human serum (Sigma-Aldrich Co. LLC) diluted with SM was added at 300 μL/sample and suspended to cause a reaction at 4° C. for 30 minutes. […]\n(§5) The cells were washed twice with SM, suspended by SM containing 1% of 7-AAD Staining Solution (BD Biosciences), allowed to stand at 4° C. for 10 minutes, and the fluorescent intensity was analyzed by flow cytometry (BD Biosciences, FACS CantoII).\n(§6) Human eosinophils were detected as 7-AAD negative siglec8-PE positive fractions in granulocyte fractions of FSC-SSC deployment. Human basophils were detected as 7-AAD negative fractions, CD123-PC-Cy7 positive fractions, FcεRI-APC positive fractions in lymphocyte fractions of FSC-SSC deployment. The cell depletion activity was evaluated by analyzing the count number of each cell per a certain number of CountBright. […]"}, "[2]": {"system": "human basophils", "experiment": "Basophil depletion (cytotoxic) activity in human peripheral blood cells, flow cytometry", "format": "cell-based", "settings": "37° C., 20 hours", "description": "as §1, §2, §3, §4, §5, §6"}, "[3]": {"system": "cynomolgus monkey CRTH2", "sequence (as listed by the source)": "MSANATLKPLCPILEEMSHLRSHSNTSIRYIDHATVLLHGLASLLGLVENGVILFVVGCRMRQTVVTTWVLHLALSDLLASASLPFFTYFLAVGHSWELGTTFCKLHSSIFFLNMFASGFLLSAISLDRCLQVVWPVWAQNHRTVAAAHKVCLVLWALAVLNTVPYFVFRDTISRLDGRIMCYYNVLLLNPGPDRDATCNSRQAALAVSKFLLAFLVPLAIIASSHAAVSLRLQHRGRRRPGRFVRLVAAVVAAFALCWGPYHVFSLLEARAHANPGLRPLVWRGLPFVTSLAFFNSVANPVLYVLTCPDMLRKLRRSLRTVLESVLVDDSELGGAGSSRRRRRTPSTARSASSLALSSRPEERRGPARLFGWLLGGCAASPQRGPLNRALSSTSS", "experiment": "Binding activity against Azami-Green fusion cynomolgus monkey CRTH2-expressing CHO/DG44 cells", "settings": "2-30000 ng/mL, compared with human CRTH2; FIG. 21", "description": "The Azami-Green fusion human CRTH2-expressing CHO/DG44 cells and the cynomolgus monkey CRTH2-expressing CHO/DG44 cells established in Example 24 were peeled using 0.02% EDTA solution (NACALAI TESQUE, Inc.), washed with PBS, and suspended with SM. Next, the cells were seeded in a 96-well plate such that each well had 2×10^5 cells, and humanized Lym2 antibody LV0HV1 or the anti-DNP IgG1 antibody at each of final concentrations 30000, 7500, 1875, 469, 117, 29, 7, and 2 ng/mL were added thereto to cause a reaction at 4° C. for 40 minutes.\nAfter the cells were washed three times with SM, goat anti-Human IgG alexa 647 (Molecular Probes) diluted to a concentration of 10 μg/mL with SM was added thereto at 100 μL/well to perform a reaction at 4° C. for 40 minutes. The cells were washed with SM and resuspended with 100 μL of SM, and the fluorescent intensity was measured by flow cytometry (BD Biosciences, FACS CantoII).\nThe data was analyzed by FLowJo 7.65 (Tomy Digital Biology Co., Ltd.)."}, "[4]": {"settings": "Example 8, 0.01-1000 ng/mL, FIG. 3"}, "[5]": {"settings": "Example 14, 0.1-1000 ng/mL, FIG. 11"}},
  "data": [
    {"molecule": "LV0HV1: humanized Lym2 antibody, VL LV0 (SEQ ID NO: 33), VH HV1 (SEQ ID NO: 51) (antibody, V domains shown) VH: EVQLVESGGGVVQPGRSLRLSCAASGFTFSNYYMAWVRQAPGKGLEWVATISYDGSSTYYRDSVKGRFTISRDNAKNSLYLQMNSLRAEDTATYYCARHRGYYYSGAGYFDYWGQGTMVTVSS VL: DIVMTQTPLSLPVTPGESASISCRSSQSLEYSDGYTYLEWYLQKPGQSPQVLIYGVSNRFSGVPDRFSGSGSGTDFTLKISRVEAEDVGVYYCFQATHDPLTFGQGTKLEIK", "values": [
      {"measurement": "cytotoxic activity against eosinophils", "setting": "[1]; [4]", "value": "comparable to the chimeric Lym2 antibody chLym2"},
      {"measurement": "removal of eosinophils", "setting": "[1]; [5]", "value": "removed"},
      {"measurement": "cytotoxic activity against basophils", "setting": "[2]; [4]", "value": "comparable to the chimeric Lym2 antibody chLym2"},
      {"measurement": "removal of basophils", "setting": "[2]; [5]", "value": "removed"},
      {"measurement": "binding activity against monkey CRTH2", "setting": "[3]", "value": "substantially the same as each other"}
    ]}
  ]
}
